Data: article PMC9546532 (Proceedings of the National Academy of Sciences of the …, 2022)

Target: T1, Ela1^(1-143) of the Elc1/Ela1^(1-143) complex (separate chains) (S. cerevisiae, UniProt P53861 1-143)
T1 sequence (looked up): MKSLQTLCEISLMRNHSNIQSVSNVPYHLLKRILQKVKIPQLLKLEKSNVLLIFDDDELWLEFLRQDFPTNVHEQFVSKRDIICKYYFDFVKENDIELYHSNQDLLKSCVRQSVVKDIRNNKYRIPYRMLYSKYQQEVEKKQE
Assay: SEC + AUC

B1: Elc1 of the Elc1/Ela1^(1-143) complex (separate chains) (natural protein, S. cerevisiae, UniProt Q03071 1-99, looked up)
chain: MSQDFVTLVSKDDKEYEISRSAAMISPTLKAMIEGPFRESKGRIELKQFDSHILEKAVEYLNYNLKYSGVSEDDDEIPEFEIPTEMSLELLLAADYLSI
binding result: binds
